Results reported in US20110104167A1, “Compositions and Methods for Diagnosing and Treating Insulin Resistance” (YEDA RESEARCH AND DEVELOPMENT CO. LTD., priority 2004, published 2011).
Substitutions are numbered along the chain they refer to. In names and notes the source's numbering stands.

Assays:
Fao cells = experiment: Effect of inducers of insulin resistance on insulin-stimulated Tyr phosphorylation of IRS-1 in Fao cells; format: cell-based, rat
Experimental: FIGS. 5a-c show the effects of TPA and anisomycin on insulin-induced Tyr phosphorylation of IRS-1^7A in Fao cells. Fao cells were infected with Ad-Myc-IRS-1^WT or Ad-Myc-IRS-1^7A at 7×10^7 PFU/ml. Following 48 hours the cells were deprived of serum for 16 h, and were then treated for 60 min with 200 nM TPA (FIG. 5a); 50 ng/ml of anisomycin (FIG. 5b) or 1 μg/ml of anisomycin (FIG. 5c). This was followed by treatment with 100 nM insulin for 2 min (FIG. 5a) or for the indicated times (FIGS. 5b-c). Cell extracts were prepared, and samples (1 mg) were subjected to immunoprecipitation (IP) with anti-Myc antibodies (FIG. 5a). Immunocomplexes were resolved on 7.5 SDS-PAGE and were immunoblotted with the indicated antibodies. Alternatively, total cell extracts (FIGS. 5b-c) were resolved on 7.5% SDS-PAGE and immunoblotted with the indicated antibodies. Results of a representative of four experiments are presented. The results of two independent experiments done in duplicates were quantified (FIG. 5a, right panel).
FIGS. 6a-b show the dose dependent effect of Palmitic acid on Insulin-induced Tyr phosphorylation of IRS-1 mutants in Fao cells. Fao cells were infected with Ad-Myc-IRS-1^WT or Ad-Myc-IRS-1^7A at 7×10^7 PFU/ml. Following 24 hours the cells were deprived of serum for 12 h, and were then further incubated for 12 h with or without the indicated concentrations of palmitic acid in serum free medium prior to being stimulated with 100 nM insulin for the indicated times. Cell extracts (100 μg) were resolved on 7.5% SDS-PAGE and immunoblotted with anti-PY and anti-Myc antibodies. The results of two independent experiments done in duplicates were quantified.
FIGS. 11a-c show the effects of TPA and anisomycin on insulin-stimulated Tyr phosphorylation of IRS-1^WT, IRS-1^7A and IRS-1^408A. Fao cells were infected with Adeno-myc-IRS-1 wild type (WT); the 7A mutant; or the S408A mutant at a titer of 4-6×10^7 PFU/ml. Following 48 hours the cells were deprived of serum for 16 h, and were then treated for 60 min with 200 nM TPA (FIG. 11a), or 50 ng/ml anisomycin (FIG. 11b), followed by treatment with 100 nM insulin for the indicated times. Cell extracts were prepared, samples (1 mg) were subjected to immunoprecipitation (IP) with anti-Myc antibodies. Immunocomplexes were resolved on 7.5% SDS-PAGE and immunoblotted with anti-PY or anti IRS-1 antibodies.
Infection of Fao cells with adenovirus—Fao cells were grown in RPMI medium containing 10% FCS. At 70% confluence cells were infected with adenoviruses harboring the gene of interest at a titer of 7 10^7 PFU/ml. After incubation for 2 h hours at 37° C., the virus-containing medium was diluted 1:5 in fresh RPMI medium. After 24 h the medium was replaced with a fresh RPMI medium containing 10% FCS. […]

CHO-T cells = experiment: Phosphorylation (mobility shift) of truncated IRS-1 PH/PTB constructs in CHO-T cells; format: cell-based, Chinese Hamster; conditions: for effect of inhibitor pretreatment on the mobility shift of PH/PTB-L induced by chronic insulin: 30 min inhibitor, then 100 nM insulin 30 min
Experimental: FIGS. 7a-c show In vivo phosphorylation of PH/PTB-L in response to insulin. CHO-T cells were transiently transfected with pcDNA3-Myc-PH/PTB (1-1290 nt) or with an insert-free plasmid (control). Twenty-four hours post-transfection, the cells were deprived of serum for 16 h and were then treated with insulin for the indicated time periods. Cell extracts (100 μg) were resolved on 10% SDS-PAGE and immunoblotted with anti-pY or anti-Myc antibodies (FIG. 7a). In parallel, samples (100 μg, 40 μl) were incubated with 3 units (U) of calf intestine phosphatase (CIP) at 37° C. for 1 h. The samples were resolved on 10% SDS-PAGE and immunoblotted with anti-Myc antibodies (FIG. 7b). The results are of a representative of two experiments. FIG. 7c—CHO^PH/PTB-L cells were starved in serum-free F12 medium for 16 h. The cells were treated for 30 min with the indicated inhibitors prior to being treated with 100 nM insulin for 30 min. Cell extracts were prepared, samples were resolved on 10% SDS-PAGE and were immunoblotted with anti-Myc antibodies. Results are of a representative of three experiments.
FIGS. 8a-b show the effects of insulin on Serine phosphorylation of Myc-PH/PTB-L^7A CHO-T cells were transiently transfected with constructs encoding Myc-PH/PTB-L (1-1290 nt), either wild type (WT) or the 7A mutant (FIG. 8a). Alternatively, the cells were transfected or with the constructs encoding Myc-PH/PTB-L (1-1290 nt; 1-430 aa) or Myc-PH/PTB-S (1-1095 nt; 1-365 aa, FIG. 8b). Following 24 hours in culture, the cells were incubated in serum-free F12 medium for 16 ch prior to being treated with insulin for the indicated times. Cell extracts were resolved on 10% SDS-PAGE and immunoblotted with anti-Myc antibodies. Results are of a representative of three experiments.
FIGS. 9a-b show the effects of insulin and calyculin A on Ser phosphorylation of PH/PTB-L mutants. FIG. 9a—CHO-T cells were transiently transfected with constructs expressing either Myc-PH/PTB^WT or the following PH/PTB mutants: S336A, S407A, S408A, S407/8A and S3A (S336/407/408A). Following 24 hours the cells were deprived of serum for 16 h, and were treated with insulin for the indicated times. Cell extracts were resolved on 10% SDS-PAGE and immunoblotted with anti-Myc antibodies. The results are of a representative of two-three experiments. FIG. 9b—CHO-T cells were transiently transfected with pcDNA3-myc-PH/PTB^WT or pcDNA3-myc-PH/PTB^S408A. Following 24 hours the cells were starved for 16 h and were then treated either with 100 nM insulin for 30 min or with 25 nM calyculin A for 60 min. Cell extracts were resolved on 10% SDS-PAGE and were immunoblotted with anti-Myc antibodies. Results are of a representative of two experiments.
Plasmids construction—i. Myc-tagged-IRS-1 The cDNA, encoding for the mouse IRS-1 in the pCNA-3 expression plasmid (35) was digested with Hind III and BspE-1. This deleted a 9 by fragment from the 5′-IRS-1 cDNA that was replaced by a double stranded synthetic oligonucleotide encoding the Myc tag and the missing amino-acids of IRS-1 (bold) […] (SEQ ID NO. 9). ii. Myc-tagged truncated IRS-1 (aa 1-430, PH/PTB-L) Myc-tagged mouse IRS-1 cDNA (N-terminus, 1-1290 nt), encoding for the first 430 aa of IRS-1, was PCR-amplified with the following primers. 5′-CAGGATCCGCATATGGAACAAAAGCTC-3′ (sense) (SEQ ID NO. 10); 5′-GAGAATTCATCAGGGACTAGAACCATA-3′ (anti-sense) (SEQ ID NO. 11), using as a template the pcDNA3-Myc-IRS-1 plasmid. The PCR product was ligated into a pGEM-T. The insert was excised from pGEM-T with BamH I and EcoR I (italic), and then was ligated into pcDNA3 at the same restriction sites to generate pcDNA3-Myc-IRS-1^PH/PTB-L. iii. Myc-tagged truncated IRS-1 (aa 1-365, PH/PTB-S) Myc-tagged mouse IRS-1 cDNA (N-terminus, 1-1095 nt), encoding for the first 365 aa of IRS-1, was PCR-amplified with the following primers: 5′ […]-3′ (sense) (SEQ ID NO. 12); 5′ […] 3′ (anti sense) (SEQ ID NO. 13) using as a template the pcDNA3-Myc-IRS-1. […]

**Q.** CCCCCCCCCCCCCC(=O)O[C@@H]1[C@@H](C)[C@@]2(O)[C@@H](C=C(CO)C[C@]3(O)C(=O)C(C)=C[C@@H]23)[C@@H]2C(C)(C)[C@]12OC(C)=O [TPA, phorbol 12-myristate 13-acetate] was tested. Which “inhibition of insulin-stimulated Tyr phosphorylation of Myc-IRS-1^WT by TPA pretreatment” value (Fao cells; 200 nM TPA 60 min, then 100 nM insulin 2 min) did it give?
**A.** ~40%

**Q.** For COc1cccc(-c2cc(=O)c3ccccc3o2)c1N [PD98059], which “effect of inhibitor pretreatment on the mobility shift of PH/PTB-L induced by chronic insulin” value (CHO-T cells) is on record?
**A.** ineffective

**Q.** Which “effect of inhibitor pretreatment on the mobility shift of PH/PTB-L induced by chronic insulin” value (CHO-T cells) does the source give for C[S+]([O-])c1ccc(-c2nc(-c3ccncc3)c(-c3ccc(F)cc3)[nH]2)cc1 (stereo not drawn) [SB203580] here?
**A.** ineffective

**Q.** CCCCCCCCCCCCCCCC(=O)O [FFA, Palmitic acid] was tested. Which “reduction in insulin-stimulated Tyr phosphorylation of IRS-1^WT by FFA pre-treatment” value (Fao cells; FFA 0.5-0.75 mM) did it give?
**A.** ~35%

B1: PH/PTB-L^S336A: PH/PTB-L with Ser336 mutated to Ala (protein, UniProt P35569 1-430, looked up, variant S336A)
chain: MASPPDTDGFSDVRKVGYLRKPKSMHKRFFVLRAASEAGGPARLEYYENEKKWRHKSSAPKRSIPLESCFNINKRADSKNKHLVALYTRDEHFAIAADSEAEQDSWYQALLQLHNRAKAHHDGAGGGCGGSCSGSSGVGEAGEDLSYDTGPGPAFKEVWQVILKPKGLGQTKNLIGIYRLCLTSKTISFVKLNSEAAAVVLQLMNIRRCGHSENFFFIEVGRSAVTGPGEFWMQVDDSVVAQNMHETILEAMRAMSDEFRPRSKSQSSSSCSNPISVPLRRHHLNNPPPSQVGLTRRSRTESITATSPASMVGGKPGSFRVRASSDGEGTMSRPAAVDGSPVSPSTNRTHAHRHRGSSRLHPPLNHSRSIPMPSSRCSPSATSPVSLSSSSTSGHGSTSDCLFPRRSSASVSGSPSDGGFISSDEYGSSP
modifications: Myc tag
notes: PH/PTB-L with Ser336 mutated to Ala
**Q.** Which “mobility shift following 30 min insulin treatment” value (CHO-T cells; CHO-T cells) does the source give for B1 here?
**A.** identical mobility-shifts as PH/PTB-L^WT

B2: PH/PTB-L^S408A: PH/PTB-L with Ser408 mutated to Ala (protein, UniProt P35569 1-430, looked up, variant S408A)
chain: B1 chain with A336S, S408A
modifications: Myc tag
notes: PH/PTB-L with Ser408 mutated to Ala
**Q.** For B2, which “mobility shift following 30 min insulin treatment” value (CHO-T cells; CHO-T cells) is on record?
**A.** abolished the mobility shift

B3: PH/PTB-L^407/S408A: PH/PTB-L with Ser407 and Ser408 mutated to Ala (protein, UniProt P35569 1-430, looked up, variant S407A S408A)
chain: B1 chain with A336S, S407A, S408A
modifications: Myc tag
notes: PH/PTB-L with Ser407 and Ser408 mutated to Ala
**Q.** For B3, which “mobility shift following 30 min insulin treatment” value (CHO-T cells; CHO-T cells) is on record?
**A.** abolished the mobility shift

B4: PH/PTB-L^S407A: PH/PTB-L with Ser407 mutated to Ala (protein, UniProt P35569 1-430, looked up, variant S407A)
chain: B1 chain with A336S, S407A
modifications: Myc tag
notes: PH/PTB-L with Ser407 mutated to Ala
**Q.** Which “mobility shift following 30 min insulin treatment” value (CHO-T cells; CHO-T cells) does the source give for B4 here?
**A.** identical mobility-shifts as PH/PTB-L^WT

B5: PH/PTB-S: Myc-tagged truncated mouse IRS-1 (aa 1-365), lacks S407 and S408 (protein, UniProt P35569 1-365, looked up, fragment)
chain: MASPPDTDGFSDVRKVGYLRKPKSMHKRFFVLRAASEAGGPARLEYYENEKKWRHKSSAPKRSIPLESCFNINKRADSKNKHLVALYTRDEHFAIAADSEAEQDSWYQALLQLHNRAKAHHDGAGGGCGGSCSGSSGVGEAGEDLSYDTGPGPAFKEVWQVILKPKGLGQTKNLIGIYRLCLTSKTISFVKLNSEAAAVVLQLMNIRRCGHSENFFFIEVGRSAVTGPGEFWMQVDDSVVAQNMHETILEAMRAMSDEFRPRSKSQSSSSCSNPISVPLRRHHLNNPPPSQVGLTRRSRTESITATSPASMVGGKPGSFRVRASSDGEGTMSRPASVDGSPVSPSTNRTHAHRHRGSSRLHPPLN
modifications: Myc tag
notes: Myc-tagged truncated mouse IRS-1 (aa 1-365), lacks S407 and S408
**Q.** How did the “mobility shift (Ser phosphorylation) following prolonged insulin treatment” value (CHO-T cells; CHO-T cells, prolonged insulin) turn out when B5 was run?
**A.** no decrease in its mobility
